Assay results as given in the nanobody polyreactivity screen of Harvey et al. (2022).

Test: yeast display, Sf9 membrane polyspecificity reagent, FACS + sequencing; frameworks hold sequencing errors
How it was run: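 In a synthetic yeast display library (Saccharomyces cerevisiae BJ5465), nanobody expression was induced with galactose for 36–48 hours. FACS gates were set low and high (top ~1%) using anti-HA fluorescence for expression and streptavidin fluorescence for binding of the Sf9 membrane reagent. Each polyreactivity label is drawn from the gate of origin.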

| Sequence | polyreactivity (PSR sort gate) |
| --- | --- |
| QVQLVESGGGLVQAGGSLRLSCAASGRTFAGNAMGWYRQAPGKERELVAAISQGGGSTYYADSVKGRFTISRDNAKNTVYLQMNSLKPEDTAVYYCAAEIPRRWASFATLWYDYWGQGTQVTVSS | low polyreactivity |
| QVQLVESGAGLVQAGGSLRLTCAASGFIFRDYAMGGYRQAPGKDRELVAAISSGDSTNYADSVKGRFTISRDNAKNTVYLLMNSLKPEDTAVYYCAADQVQYTGYTEYDWGQGTQVTVSS | low polyreactivity |
| QVQLVESGGGLVQAGGSLRLSCAASGRIFYNYAMGWYRQAPGKERELVAAITGGASTYADSVKGRFTISRDNAKNTVYLQMNSLKPEDTAVYYCAVDYYTYSLASGRTRMDYWGQGTQVTVSS | high polyreactivity |
| QVQLVDSVGVLVQAGGSLRLSCAASGSIFYRNVMGWYRPAPGKERELVATISRGGTTNYADSVKGRFTISRDNAKNTVYLQMNSLKPEDTAVFYCAAPIGDVYVGIGYDSWGQGTQVTVSS | low polyreactivity |
| QVQLVESGGGLVQAGGSLRLSCAASGSTFSRNAKGWYRQAPGKERELVAAITRSGGSTYYADSVKGRFTISRDNAKNTVYLQMNSLKPEDTAVYYCAVAVPRGVYLYDYWGQGTQVTVSS | low polyreactivity |
| QVQLVESGGGLVQAVGSLRLSCAASGIIFDSYAMGWYRQAPGKERELVAAITSRGGRTYYADSVKGRFTISRDNAKNTVYLQMNSLKPEDTAVYYCAADDGWIEPVYGYYEHEYWGQGTQVTVSS | low polyreactivity |
| QVQLVESGGGLVQAGGSLRLSCAASGSIFLINAMGWYRQAPGTERELVAAISRRGGSTYYADSVKGRFTISRDNAKNTVYLQMNSLKPEDTAVYYCAATGHGRVYFGGGHWGQGTQVTVSS | high polyreactivity |
| QVQLVESGGGLVQAGGRLRLSCAASGSIFGVYDMGWYRQAPGKERELVAVINSNGGSTYYADSVKGRFTISRDNAKNTVYLQMNSLKPEDTAVYYCAAERATVKFGYWGQGTQVTVSS | low polyreactivity |
| QVQLVETGRGLLQAGGTLLLTCAASGSIYTYAMGWYKQAHGTQRELVAAISRSGGRTYYADSVKGRFTNSRDNAKNTVYLQMNSLKPEDTAVYYCAALLLKDYDYLGQGTQVTVSS | low polyreactivity |
| QVQLVESGGGLVQAGGSLRLSCAASGSTFFLYAMGWYRQAPGKERELVAAITYTDGDTYYADSVKGRFTISRDIAKKTVYLQMNSLKPEDTAVYYCAADSWVQFDYWGQGTQVSVSS | low polyreactivity |
| QVQLVESSGGLVQAGGSLRLSCAHSGIIFYCYAMGCYRHSPGNLRELVAAISNNGGSTYPDSVKGRFTISRDNAKNTVYLQMNSLKPEDTAVYYGDAHPTGGVGFDAYYWGQGTQVTVSS | low polyreactivity |
| QVQLVESGGGLVQAGGSLRLSCAASGIIFPPYAMGWYRQAPGKEREFVAGITSSGGTYYADSVKGRFTISRDNAKNTVFLQMNSLKPDDTAVYYCAARQGNLRRGFRWFNYWGQGTQVTVSS | high polyreactivity |
| QVQLVESGGGLVQAGGSLRLSCAASGITFSYYAMGWYRQAPGKEMELVAAISGRDTRTYYADSVKGRFTISRDNAKNTVYLQMNSLKPEDTAVYYCNAVRKHLLKYDYWGQGTQVTVSS | high polyreactivity |
| QVQLVESGGGLVQAGGSLRLSCAASGFTFRGYAMGWYRQAPGKERELVADITSGGSTYYADSVKGRFTISRDNAKNTVYLQMNSLKPEDTAVYYFATDILYWSDYAYEGYYTLDYYWGQGTQVTVSS | high polyreactivity |
| QVQLVDSVGGLVQAGGSLRLSCAASGFTFWYYAMGWYRQAPGKERELVAAISSGGSTYYADSVKGRFTISRDNAKNTVYLQMNSLKPEDTAVYYCAARIGARGRGGKDRVYYWGQGTQVTVSS | high polyreactivity |
| QVQLVESGGGLVQAGGILRLSCASSGRTFAWYAMGWYRPAPGKERELVAAITTRGSGTYYADSVKGRFTISRDNAKNTVYLQMNSLKPEDTAVYYGAKDPITATTLDERVYYWGQGTQLTVSS | low polyreactivity |
| QVQLQESGGGLVQAGGSLRLSCAASGTISQEDCMGWYRQATGKQREFVAAIGLGSNTNYADSLKGRFTISRDNAKNTVYLLMNSLKPEDTAVYYCAVSVWQYSDHVYRGQGTQVTVSS | low polyreactivity |
| QVQLVESGGGLVQAGGSLRLSCAASGITFANYAMGWYRQAPGKERELVAAISWSDTSTYADSVKGRFTISRDNAKNTVYLQMNSLKPEDTAVYYCAADYHTPSSFAPIELYDYWGQGTQVTVSS | low polyreactivity |
| QVQHVESGGGLVQAGGSLRLSCAASGSIFSVYAMGWYRPEPGKASQLFAGITRGGSTYADSVKGRFTISRDNAKNTVYLQMNSLKPEDTAVYYCAADALIATPSWGKYNYWVQGTQVTVSS | high polyreactivity |
| QVQLEESGGGLVQAGGSLRLSCAASGFISIPYAMGWYRQAPGKERELVASITRSGGNTYYADSVKGRFTISRDNAKNTVYLQMNSLKPEDTAVYYCNVVVYRWSPVSKLDYWGQGTQVTVSS | high polyreactivity |
| QVQLVESGGGLVQAGGSLRLSCAASGSTFVSNVMGWYRQAPGKERELVAAITSGGSTYYADSVKGRFTISRDNAKNTVYLQMNSLKPEDTAVYYCAAGGRWARWLFPSRYDYWGQGTQVTVSS | low polyreactivity |
| QVQLVESGGGLVQAGGSLRLSCAASGFTFTRNTMGWYRQAPGKERELVAAITRGGSTNYADSVKGRFTITRDNAKNTVYLQMNSLKPEDTAVYYCAADAPFDRPYNYWGQGTQVTVSS | low polyreactivity |

| Sequence | polyreactivity (PSR sort gate) |
| --- | --- |
| QVQLVESGGGLVQAGGSLRLSCAASGFIYERNAMGWYRQAPGKERELVAAISGGGSTNYADSVKGRFTISRDNAKNTVYLQMNSLNPEDTAVYYCAADSWWYPFDYWGQGTQVTVSS | high polyreactivity |
| QVQLVESGGGLVQAGGSLRLSCAASGGIFGYYAMGWYRPAPGKERELVAAINYSGGSTYYADSVKGRFTISRDNAKNTVYLQMNSLKPEDTAVYYCNAVVRDYTFRYYYWGQGTQVTVSS | low polyreactivity |
| QDQLVESGGGLDQAGRSLRLSCAASGFTYRPYAMGWYRQEPGKERELVAAISSIGSTYYADSVKGRFTISRDNAKYTVYLPMNSLNPEDTAVYYCIADSYVRSTIFDHWGQGTQVTVSS | low polyreactivity |
| QVQLLESGGGLVQAGGSLRLSCAASGSTFTKYDMGWYRQAPGKERELVAAIRSGGDTNYADSVKGRFTISLDNAKNTVYLQMNSLNPEDTAVYYLAAARGPTNHTSYPWYEYDYWGQCTQVTVSS | low polyreactivity |
| QVHLVETGGGLVQAGGSLRLSCAASGFIFIWYALGGYRQAPGKERELVAAITSDGGRTYYADSVKGRFTISRDNAKNSVYFQMNSLKPEDTAVYYCYAVSSATKYEYWGQGTQVTVSS | high polyreactivity |
| QVHLVESGGGLLQAGGSLRLSCAASGFTFFVNAMGWYRQAPGKERELVAAISIRSGGRTYYADSVKGRFTISRENAKNTVYLQMNSLKPEDTAVYYCAAESSRPEHTFHYYRFLFDYWGQGTQVTVSS | low polyreactivity |
| QVQLVESGGGLVQAGGSLRLSCAASGSTFWSYAMGWYRPAPGKERELVAAITSGGRTYYADSVKGRFTISRDNAKNTVYLQMNSLKPEDTAVYYCNAVVRHTYRRFDYWGQGTQVTVSS | high polyreactivity |
| QVQLVESGGGLVQAGGSLRLSCAASGRIFKAYAMGWYRQAPGKERELVAVITGTGRTTYADSVKGRFTISRDNAKNTVYLQMNSLKPEDTAVYYCNVRWYYKGDYWGQGTLVTVSS | high polyreactivity |
| QVQLVESGGGLVQAGGSLRLSCAASGFTFSAYAMGWYRQAPGKERELVAAITRSGGSTYYADSVKGRFTISRDNAKNTVYLQMNSLKPEDTAVYYCAKSDRPWWGYYYQFDYWGQGTQVTVSS | low polyreactivity |
| QVQLVESGGGLDQAGGRLRLSCAASGRTFVYYAMGWYRQAPGKERELVATITRGGRTNYADSVKGRFTISRDNAKNTVYLQMNSLKPEDTAVYYCNARYSWWRSRVGSSHRPDGYWGQGTQVTVSS | high polyreactivity |
| QVQLVESGGGLVQAGGSLRLSCAASGFIFYRYTMGWYRQAPGKERELVAGISSRGTRTYYADSVKGRFTISRDNAKNTVYLQMNSLKPEDTAVYYCAAVLTQPKKVNYWGQGTQVTVSS | high polyreactivity |
| QVQLVESGGGLVQAGGSLRLSCAASGSIFSIYAMGWYRQAPGKERDFVASITVTDGSTYYADSVKGRFTISRDNAKNTVYLQMNSLKPEDTAVYYCYADGWYALYEWLAVSGYYWGQGTQVTVSS | low polyreactivity |
| QVQLVESGGGLVQAGGSLRLSCAASGRTFDFYAMGWYRQAPGKERELDAAITFSTGSTTYADSVKGRFTISRDNAKNTVYLQMNSLKPEDTAVYYCNAYLYRKFGYRAYDYWGQGTQVTVSS | low polyreactivity |
| QVLVVESGGCLVQAVGSLRLSCAAYGITCSRNALGWYRLAAGKERELVATITSGGSTNYADSVKGRFTISRDNAKNTVYLQMMSLKPEDPAVYFCNAVWNTFISGRSYDYWGQVTQVTVSS | low polyreactivity |
| QVQIVESGGGLVQAGGSLRIICAASGSTFDPNAMGWYRQAPGKERELVAGISTGGTRTYYADSVKGRFTISRDNAKNTVFLQLKSLKPEDTAVYYCAARFTYNVLDTIYRLYYWGQGTQVTVSS | high polyreactivity |
| QVQLVESGGGLVQAGGSLRLSCAASGRISRCYVMGRYRHAPGTERELVAAITWNSGSTYYADSVKGRFTISRDNAKNTVYLQMNSLTPEDTAVYYCAGVLYSRYQQYDYWGQGTQVTVSS | high polyreactivity |
| QVQHVESGGGLVQAGGSLRLSCAASGSIFGANAMGWYRQAPGNERQLVAAITSGGSTTYADSVKGRFTISRDNAKNTVYLQMNSLKPDDTAVYYCAADESTPYWPVDNFDYWGQGTQVTVSS | low polyreactivity |
| QVQLVESGGGLVQAGGSLRLSCAASGRTFYRYAMGWYRQAPGKERELVAAITTGGGSTYYADSVKGRFTISRDNAKNTVYLQMNSLKPEETAVYYCNVYSSYTRRTLGDYWGQGTQVTVSS | high polyreactivity |
| QVQLVESGGGLVQAGGSLRLSCAASGGIFLSNAMGWYRQAPGKERELVAAISRSGGSTYYADSVKGRFTISRDNAKNTVYLQMNSLKPEDTAVYYCAARWTRNYGMNYWGQGTQVTVSS | high polyreactivity |
| QVQLVESGGGLVQAGGSLRLSCAASGFTFGRYAMGWYRQAPGKERELVAAITWSGGSTYYADSVKGRFTISRDNAKNTVYLQMNSLKPEDTAVYYCNRLSNNREYDYWGQGTQVTVSS | high polyreactivity |
| QVQLVESGGGLVQAGGSLRLSCAASGSTFIVNAMGWYRQAPGKERELVATISGGDSTDYADSVKGRFTISRDNAKNTVYLQMNSLKPEDTAVYYCNSDVHQYYFTPYDYWGQGTQVTVSS | low polyreactivity |
